The record followed here is patent US20190292517A1.

In this assay the target is CD3 on human peripheral blood T cells (human) (UniProt P07766). The assay is described as follows: cell-based or functional assay.

As for muromonab (OKT3), anti-CD3 antibody, the fold expansion of human T cells at day 13, 0.5 ug anti-CD3 on APC-MS (1:1 with anti-CD28) was 600 to 700 fold; the fold expansion of human T cells at day 13, 1 ug anti-CD3 on APC-MS (1:1 with anti-CD28) lay within 300 to 400 fold; the fold expansion of human T cells at day 13, 5 ug anti-CD3 on APC-MS (1:1 with anti-CD28) was 600 to 800 fold.
“HIT3a, antibody recognizing 17-19 kD epsilon-chain of CD3 within the CD3 antigen/T cell antigen receptor (TCR) complex”: the fold expansion of human T cells at day 13, 1 ug anti-CD3 on APC-MS (1:1 with anti-CD28) was in the range of 300 to 400 fold and the fold expansion of human T cells at day 13, 5 ug anti-CD3 on APC-MS (1:1 with anti-CD28) was 600 to 800 fold.
For the substance “UCHT1, monoclonal antibody recognizing a 20 kDa subunit of the TCR complex within CD3e”, the fold expansion of human T cells at day 13, 5 ug anti-CD3 on APC-MS (1:1 with anti-CD28) was in the range of 600 to 800 fold.
